Reference: patent US20240270846A1 (published 2024)

Each binder was assayed against T1, CD3 epsilon homodimer protein (UniProt P07766 23-126) (assay: SPR Biacore T200, CD3 epsilon homodimer on chip, antibody as analyte;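 also: homodimer amine-coupled to a CM4 sensor chip, run at 25 °C in HBS-EP+ buffer, with kinetic parameters derived in Biacore T200 Evaluation Software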).
T1 construct: also called CD3 (CD3 epsilon)
T1 sequence (P07766 23-126): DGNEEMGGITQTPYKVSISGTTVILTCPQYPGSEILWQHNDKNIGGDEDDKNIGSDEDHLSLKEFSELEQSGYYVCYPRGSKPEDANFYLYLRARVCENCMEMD

Binder	KD ratio (KD of CE115HA000 / KD of altered form)
CE115HA000 H chain altered form N31D (antibody, human IgG1, kappa, L234A L235A, N297A, name in Kabat numbering, one-arm antibody) heavy: QVQLVESGGGVVQPGRSLRLSCAASGFTFSDAWMHWVRQAPGKGLEWVAQIKAKSNNYATYYAESVKGRFTISRDDSKNSLYLQMNSLKTEDTAVYYCRYVHYGAYYGVDAWGQGTTVTVSSASTKGPSVFPLAPSSKSTSGGTAALGCLVKDYFPEPVTVSWNSGALTSGVHTFPAVLQSSGLYSLSSVVTVPSSSLGTQTYICNVNHKPSNTKVDKKVEPKSCDKTHTCPPCPAPEAAGGPSVFLFPPKPKDTLMISRTPEVTCVVVDVSHEDPEVKFNWYVDGVEVHNAKTKPREEQYASTYRVVSVLTVLHQDWLNGKEYKCKVSNKALPAPIEKTISKAKGQPREPQVYTLPPSRCELTKNQVSLSCAVKGFYPSDIAVEWESNGQPENNYKTTPPVLDSDGSFFLVSKLTVDKSRWQQGNVFSCSVMHEALHNHYTQKSLSLSPDYKDDDDK EPKSSDKTHTCPPCPAPELLGGPSVFLFPPKPKDTLMISRTPEVTCVVVDVSHEDPEVKFNWYVDGVEVHNAKTKPREEQYNSTYRVVSVLTVLHQDWLNGKEYKCKVSNKALPAPIEKTISKAKGQPREPQVCTLPPSRDELTKNQVSLWCLVKGFYPSDIAVEWESNGQPENNYKTTPPVLDSDGSFFLYSKLTVDKSRWQQGNVFSCSVMHEALHNRYTQKSLSLSP light: DIVMTQSPLSLPVTPGEPASISCRSSQSLVHSNRNTYLHWYQQKPGQAPRLLIYKVSNRFSGVPDRFSGSGSGTDFTLKISRVEAEDVGVYYCGQGTQVPYTFGQGTKLEIKRTVAAPSVFIFPPSDEQLKSGTASVVCLLNNFYPREAKVQWKVDNALQSGNSQESVTEQDSKDSTYSLSSTLTLSKADYEKHKVYACEVTHQGLSSPVTKSFNRGEC	1.14
CE115HA000 H chain altered form N31G (antibody, human IgG1, kappa, L234A L235A, N297A, name in Kabat numbering, one-arm antibody) heavy: QVQLVESGGGVVQPGRSLRLSCAASGFTFSGAWMHWVRQAPGKGLEWVAQIKAKSNNYATYYAESVKGRFTISRDDSKNSLYLQMNSLKTEDTAVYYCRYVHYGAYYGVDAWGQGTTVTVSSASTKGPSVFPLAPSSKSTSGGTAALGCLVKDYFPEPVTVSWNSGALTSGVHTFPAVLQSSGLYSLSSVVTVPSSSLGTQTYICNVNHKPSNTKVDKKVEPKSCDKTHTCPPCPAPEAAGGPSVFLFPPKPKDTLMISRTPEVTCVVVDVSHEDPEVKFNWYVDGVEVHNAKTKPREEQYASTYRVVSVLTVLHQDWLNGKEYKCKVSNKALPAPIEKTISKAKGQPREPQVYTLPPSRCELTKNQVSLSCAVKGFYPSDIAVEWESNGQPENNYKTTPPVLDSDGSFFLVSKLTVDKSRWQQGNVFSCSVMHEALHNHYTQKSLSLSPDYKDDDDK EPKSSDKTHTCPPCPAPELLGGPSVFLFPPKPKDTLMISRTPEVTCVVVDVSHEDPEVKFNWYVDGVEVHNAKTKPREEQYNSTYRVVSVLTVLHQDWLNGKEYKCKVSNKALPAPIEKTISKAKGQPREPQVCTLPPSRDELTKNQVSLWCLVKGFYPSDIAVEWESNGQPENNYKTTPPVLDSDGSFFLYSKLTVDKSRWQQGNVFSCSVMHEALHNRYTQKSLSLSP light: DIVMTQSPLSLPVTPGEPASISCRSSQSLVHSNRNTYLHWYQQKPGQAPRLLIYKVSNRFSGVPDRFSGSGSGTDFTLKISRVEAEDVGVYYCGQGTQVPYTFGQGTKLEIKRTVAAPSVFIFPPSDEQLKSGTASVVCLLNNFYPREAKVQWKVDNALQSGNSQESVTEQDSKDSTYSLSSTLTLSKADYEKHKVYACEVTHQGLSSPVTKSFNRGEC	1.37
CE115HA000 H chain altered form N31H (antibody, human IgG1, kappa, L234A L235A, N297A, name in Kabat numbering, one-arm antibody) heavy: QVQLVESGGGVVQPGRSLRLSCAASGFTFSHAWMHWVRQAPGKGLEWVAQIKAKSNNYATYYAESVKGRFTISRDDSKNSLYLQMNSLKTEDTAVYYCRYVHYGAYYGVDAWGQGTTVTVSSASTKGPSVFPLAPSSKSTSGGTAALGCLVKDYFPEPVTVSWNSGALTSGVHTFPAVLQSSGLYSLSSVVTVPSSSLGTQTYICNVNHKPSNTKVDKKVEPKSCDKTHTCPPCPAPEAAGGPSVFLFPPKPKDTLMISRTPEVTCVVVDVSHEDPEVKFNWYVDGVEVHNAKTKPREEQYASTYRVVSVLTVLHQDWLNGKEYKCKVSNKALPAPIEKTISKAKGQPREPQVYTLPPSRCELTKNQVSLSCAVKGFYPSDIAVEWESNGQPENNYKTTPPVLDSDGSFFLVSKLTVDKSRWQQGNVFSCSVMHEALHNHYTQKSLSLSPDYKDDDDK EPKSSDKTHTCPPCPAPELLGGPSVFLFPPKPKDTLMISRTPEVTCVVVDVSHEDPEVKFNWYVDGVEVHNAKTKPREEQYNSTYRVVSVLTVLHQDWLNGKEYKCKVSNKALPAPIEKTISKAKGQPREPQVCTLPPSRDELTKNQVSLWCLVKGFYPSDIAVEWESNGQPENNYKTTPPVLDSDGSFFLYSKLTVDKSRWQQGNVFSCSVMHEALHNRYTQKSLSLSP light: DIVMTQSPLSLPVTPGEPASISCRSSQSLVHSNRNTYLHWYQQKPGQAPRLLIYKVSNRFSGVPDRFSGSGSGTDFTLKISRVEAEDVGVYYCGQGTQVPYTFGQGTKLEIKRTVAAPSVFIFPPSDEQLKSGTASVVCLLNNFYPREAKVQWKVDNALQSGNSQESVTEQDSKDSTYSLSSTLTLSKADYEKHKVYACEVTHQGLSSPVTKSFNRGEC	0.96
CE115HA000 H chain altered form N31F (antibody, human IgG1, kappa, L234A L235A, N297A, name in Kabat numbering, one-arm antibody) heavy: QVQLVESGGGVVQPGRSLRLSCAASGFTFSFAWMHWVRQAPGKGLEWVAQIKAKSNNYATYYAESVKGRFTISRDDSKNSLYLQMNSLKTEDTAVYYCRYVHYGAYYGVDAWGQGTTVTVSSASTKGPSVFPLAPSSKSTSGGTAALGCLVKDYFPEPVTVSWNSGALTSGVHTFPAVLQSSGLYSLSSVVTVPSSSLGTQTYICNVNHKPSNTKVDKKVEPKSCDKTHTCPPCPAPEAAGGPSVFLFPPKPKDTLMISRTPEVTCVVVDVSHEDPEVKFNWYVDGVEVHNAKTKPREEQYASTYRVVSVLTVLHQDWLNGKEYKCKVSNKALPAPIEKTISKAKGQPREPQVYTLPPSRCELTKNQVSLSCAVKGFYPSDIAVEWESNGQPENNYKTTPPVLDSDGSFFLVSKLTVDKSRWQQGNVFSCSVMHEALHNHYTQKSLSLSPDYKDDDDK EPKSSDKTHTCPPCPAPELLGGPSVFLFPPKPKDTLMISRTPEVTCVVVDVSHEDPEVKFNWYVDGVEVHNAKTKPREEQYNSTYRVVSVLTVLHQDWLNGKEYKCKVSNKALPAPIEKTISKAKGQPREPQVCTLPPSRDELTKNQVSLWCLVKGFYPSDIAVEWESNGQPENNYKTTPPVLDSDGSFFLYSKLTVDKSRWQQGNVFSCSVMHEALHNRYTQKSLSLSP light: DIVMTQSPLSLPVTPGEPASISCRSSQSLVHSNRNTYLHWYQQKPGQAPRLLIYKVSNRFSGVPDRFSGSGSGTDFTLKISRVEAEDVGVYYCGQGTQVPYTFGQGTKLEIKRTVAAPSVFIFPPSDEQLKSGTASVVCLLNNFYPREAKVQWKVDNALQSGNSQESVTEQDSKDSTYSLSSTLTLSKADYEKHKVYACEVTHQGLSSPVTKSFNRGEC	1.24

The remaining lines, values ahead:

KD ratio (KD of CE115HA000 / KD of altered form)	Binder
0.62	CE115HA000 H chain altered form N31I (antibody, human IgG1, kappa, L234A L235A, N297A, name in Kabat numbering, one-arm antibody) heavy: QVQLVESGGGVVQPGRSLRLSCAASGFTFSIAWMHWVRQAPGKGLEWVAQIKAKSNNYATYYAESVKGRFTISRDDSKNSLYLQMNSLKTEDTAVYYCRYVHYGAYYGVDAWGQGTTVTVSSASTKGPSVFPLAPSSKSTSGGTAALGCLVKDYFPEPVTVSWNSGALTSGVHTFPAVLQSSGLYSLSSVVTVPSSSLGTQTYICNVNHKPSNTKVDKKVEPKSCDKTHTCPPCPAPEAAGGPSVFLFPPKPKDTLMISRTPEVTCVVVDVSHEDPEVKFNWYVDGVEVHNAKTKPREEQYASTYRVVSVLTVLHQDWLNGKEYKCKVSNKALPAPIEKTISKAKGQPREPQVYTLPPSRCELTKNQVSLSCAVKGFYPSDIAVEWESNGQPENNYKTTPPVLDSDGSFFLVSKLTVDKSRWQQGNVFSCSVMHEALHNHYTQKSLSLSPDYKDDDDK EPKSSDKTHTCPPCPAPELLGGPSVFLFPPKPKDTLMISRTPEVTCVVVDVSHEDPEVKFNWYVDGVEVHNAKTKPREEQYNSTYRVVSVLTVLHQDWLNGKEYKCKVSNKALPAPIEKTISKAKGQPREPQVCTLPPSRDELTKNQVSLWCLVKGFYPSDIAVEWESNGQPENNYKTTPPVLDSDGSFFLYSKLTVDKSRWQQGNVFSCSVMHEALHNRYTQKSLSLSP light: DIVMTQSPLSLPVTPGEPASISCRSSQSLVHSNRNTYLHWYQQKPGQAPRLLIYKVSNRFSGVPDRFSGSGSGTDFTLKISRVEAEDVGVYYCGQGTQVPYTFGQGTKLEIKRTVAAPSVFIFPPSDEQLKSGTASVVCLLNNFYPREAKVQWKVDNALQSGNSQESVTEQDSKDSTYSLSSTLTLSKADYEKHKVYACEVTHQGLSSPVTKSFNRGEC
0.97	CE115HA000 H chain altered form N31K (antibody, human IgG1, kappa, L234A L235A, N297A, name in Kabat numbering, one-arm antibody) heavy: QVQLVESGGGVVQPGRSLRLSCAASGFTFSKAWMHWVRQAPGKGLEWVAQIKAKSNNYATYYAESVKGRFTISRDDSKNSLYLQMNSLKTEDTAVYYCRYVHYGAYYGVDAWGQGTTVTVSSASTKGPSVFPLAPSSKSTSGGTAALGCLVKDYFPEPVTVSWNSGALTSGVHTFPAVLQSSGLYSLSSVVTVPSSSLGTQTYICNVNHKPSNTKVDKKVEPKSCDKTHTCPPCPAPEAAGGPSVFLFPPKPKDTLMISRTPEVTCVVVDVSHEDPEVKFNWYVDGVEVHNAKTKPREEQYASTYRVVSVLTVLHQDWLNGKEYKCKVSNKALPAPIEKTISKAKGQPREPQVYTLPPSRCELTKNQVSLSCAVKGFYPSDIAVEWESNGQPENNYKTTPPVLDSDGSFFLVSKLTVDKSRWQQGNVFSCSVMHEALHNHYTQKSLSLSPDYKDDDDK EPKSSDKTHTCPPCPAPELLGGPSVFLFPPKPKDTLMISRTPEVTCVVVDVSHEDPEVKFNWYVDGVEVHNAKTKPREEQYNSTYRVVSVLTVLHQDWLNGKEYKCKVSNKALPAPIEKTISKAKGQPREPQVCTLPPSRDELTKNQVSLWCLVKGFYPSDIAVEWESNGQPENNYKTTPPVLDSDGSFFLYSKLTVDKSRWQQGNVFSCSVMHEALHNRYTQKSLSLSP light: DIVMTQSPLSLPVTPGEPASISCRSSQSLVHSNRNTYLHWYQQKPGQAPRLLIYKVSNRFSGVPDRFSGSGSGTDFTLKISRVEAEDVGVYYCGQGTQVPYTFGQGTKLEIKRTVAAPSVFIFPPSDEQLKSGTASVVCLLNNFYPREAKVQWKVDNALQSGNSQESVTEQDSKDSTYSLSSTLTLSKADYEKHKVYACEVTHQGLSSPVTKSFNRGEC
